± gives the uncertainty stated by the source.

A short description of this series: amyloid nucleation score (Sup35N fusion, yeast selection) (log enrichment); library NNK3; higher = more nucleation; inactive = no reads after selection. The essentials:
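The nucleation score is the log enrichment of output over input reads, calculated with DiMSum and centred on the mode score of non-aggregating sequences. Sequences with under 100 input reads were excluded. Reads came from Illumina sequencing of plasmid inserts from psi-negative yeast expressing Sup35N fused to peptides of 20 random codons, induced 24 hours with 100 μM copper sulfate and grown 7 days at 30°C without adenine and uracil.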
As to LDMSLACPRG, the amyloid nucleation score is -0.051 ± 0.77.

For the substance LDNVKDVRYWIVCTQWWNRV, the amyloid nucleation score result was “inactive”.

Take LDSAYRTVDGSICTTSYREH: the amyloid nucleation score entry is “inactive”.

For the substance LDSGFICMTELIGVVPH, the amyloid nucleation score result was “inactive”.

On to LDWCAYWVSVISRWN, for which the amyloid nucleation score result is “inactive”.

For the substance LEDSLPQIPTQIVGWWFLKM, the amyloid nucleation score result was “inactive”.

For the substance LENLLGMWVSCAWLSGSHFV, the amyloid nucleation score result was “inactive”.

LEREDGVHWLMEEWVWCVDW: the amyloid nucleation score entry is “inactive”.

For the substance LESFWFMTGFF, the amyloid nucleation score entry was “inactive”.

LEYCVNL: the amyloid nucleation score entry was “inactive”.

In the case of LEYDRTFKILFCGGSGWHYS, the amyloid nucleation score entry was “inactive”.

As to LEYKYVGLSKFDALIRQWFL, the amyloid nucleation score result is “inactive”.

Regarding LEYLKV, the amyloid nucleation score entry was “inactive”.

With LFANTYVV, the amyloid nucleation score entry was “inactive”.

LFCAV: the amyloid nucleation score result was “inactive”.

In the case of LFDLRDNVCSRVSRNYTAGA, the amyloid nucleation score entry was “inactive”.

In the case of LFDMLMHTSPC, the amyloid nucleation score result is “inactive”.

Take LFFYRMYDGTWKGDLYIASE: the amyloid nucleation score entry is “inactive”.

LFGTFQWVDWGLFIL: the amyloid nucleation score entry was “inactive”.

LFHIQNESGVSYIKWFSLSI returned an amyloid nucleation score of 0.553 ± 0.27.

Substance LFLFQFRYGSWGFRGYMVGR registered an amyloid nucleation score of 0.837 ± 0.27.

As to LFLMLG, the amyloid nucleation score entry was “inactive”.

With LFLVIYYVFMYVA, the amyloid nucleation score entry is “inactive”.

Take LFMEYWSVATCRNSGIVFIV: the amyloid nucleation score result is “inactive”.

The substance LFMMCGHMEYAIVKNRVDKS displayed an amyloid nucleation score of 0.016 ± 0.46.

As for LFMSPVKSAWRIVCGNKFSQ, the amyloid nucleation score is -0.642 ± 1.1.

Take LFNGSSFITCSRTLGVL: the amyloid nucleation score entry was “inactive”.

With LFNYVSMPANSSSRYTGMLL, the amyloid nucleation score entry is “inactive”.

Regarding LFPLMKQYLARGFSQDIRSA, the amyloid nucleation score result was “inactive”.

On to LFPSADLATITG, for which the amyloid nucleation score result was “inactive”.

Take LFRTDFMQTLLCHTIQLLYP: the amyloid nucleation score result was “inactive”.

Substance LFSICINICLY returned an amyloid nucleation score of 1.79 ± 0.092.

Substance LFSLIVNTRLETLEFKGQIP showed an amyloid nucleation score of 1.02 ± 0.11.

LFSNNNCLNIWVWLV had an amyloid nucleation score of 2.19 ± 0.081.

As for LFSQCSLITHG, the amyloid nucleation score entry is “inactive”.

As for LFTLTWSWQLKGFFYYHGYV, the amyloid nucleation score result is “inactive”.

LFTYVPDFSGLTLSTICCLV came in with an amyloid nucleation score of 0.458 ± 0.35.

For the substance LFVLGPDRLDCAQCKLLRDR, the amyloid nucleation score entry is “inactive”.

Turning to LFVLIDYNRYP, the amyloid nucleation score result was “inactive”.

With LFVWRSMNRFFQVYVLWSAE, the amyloid nucleation score result is “inactive”.

Consider LFVYSWKRFDGNWNKLSWNR, for which the amyloid nucleation score entry is “inactive”.

In the case of LFWYTAH, the amyloid nucleation score is -0.361 ± 0.38.

Take LFYGSTCIGTDM: the amyloid nucleation score is -1.07 ± 1.1.

Take LFYYSRTVESYLSNVCLVIR: the amyloid nucleation score result is “inactive”.

As for LGDYSLTE, the amyloid nucleation score entry was “inactive”.

With LGNKGNEMPLRSKVKRWFLL, the amyloid nucleation score entry was “inactive”.

As to LGNTCKIDWRISYHMTPSDI, the amyloid nucleation score result is “inactive”.

As for LGQRWHVMLVLMSVYIF, the amyloid nucleation score entry was “inactive”.

As to LGRAQYETQFSATSVRLEPG, the amyloid nucleation score is -0.142 ± 0.82.

Turning to LGTTSYRV, the amyloid nucleation score result was “inactive”.

With LGVEVSMMTWCRMSSSMLMT, the amyloid nucleation score result was “inactive”.

For the substance LGVLMLQSTRFAAWVSSLGR, the amyloid nucleation score entry was “inactive”.

Turning to LGWGHACMKFVDHCVRSSRS, the amyloid nucleation score entry was “inactive”.

Substance LGYWKFSIRHFEGGRLQIHF yielded an amyloid nucleation score of 2.7 ± 0.056.

LHAMPLEGFLHLCPKLTCHQ came in with an amyloid nucleation score of 0.676 ± 0.18.

Take LHCSVSSQTELVPTENRGGW: the amyloid nucleation score result is “inactive”.

Regarding LHHSVG, the amyloid nucleation score result was “inactive”.

LHKTTMYFRKISLRRFEMLL: the amyloid nucleation score entry is “inactive”.

For LHLAMSRTLSHSPHSCV, the amyloid nucleation score entry was “inactive”.

For the substance LHPSRLDGT, the amyloid nucleation score was found to be 0.411 ± 0.25.

As to LHRCSLSKNDSAQSMMLTGC, the amyloid nucleation score result is “inactive”.

In the case of LHRLRKWRRLY, the amyloid nucleation score entry is “inactive”.

Consider LHSIFDSVHSCMRFWMIWSE, for which the amyloid nucleation score result was “inactive”.

For LHSVGVPMAPVKGTMWERER, the amyloid nucleation score entry is “inactive”.

On to LHTMGMSVGGMAMNKIDCPN, for which the amyloid nucleation score entry is “inactive”.

In the case of LIASLRIWPRESMPR, the amyloid nucleation score entry was “inactive”.

Take LICYQDLRLLAPWVQG: the amyloid nucleation score entry is “inactive”.

For LIFALRFSLSVSCSCAKCFR, the amyloid nucleation score result was “inactive”.

LIFLTMVSLLFGDQRRSGVQ showed an amyloid nucleation score of 0.221 ± 0.54.

With LIGDNRTGEVALYRFGSRMG, the amyloid nucleation score result was “inactive”.

For the substance LIICLYSTAGRGIRWSDSTA, the amyloid nucleation score entry was “inactive”.

As to LIIHIFLVWDWSSIERRSIS, the amyloid nucleation score result is “inactive”.

Consider LILYSLGNNTHEMIYLWSNR, for which the amyloid nucleation score result is “inactive”.

In the case of LIQPKSR, the amyloid nucleation score entry is “inactive”.

As to LIRCLVRSNVEFNNMGWWSS, the amyloid nucleation score entry is “inactive”.

As to LIRHFNKRVTSCNVVLLYNG, the amyloid nucleation score entry is “inactive”.

In the case of LIRRSWSYCVLVSCTDGSHS, the amyloid nucleation score result was “inactive”.

Regarding LISMYHHCSGHLVAQDTVSV, the amyloid nucleation score entry is “inactive”.

On to LIWIVVGLSCYSTRL, for which the amyloid nucleation score came out at 1.09 ± 0.13.

Consider LIYRHLGYCYNRGCWLVSWH, for which the amyloid nucleation score result was “inactive”.

Regarding LIYRSLPFSCLSSGV, the amyloid nucleation score entry was “inactive”.

For LKCSR, the amyloid nucleation score result was “inactive”.

As for LKDNPNSLWC, the amyloid nucleation score was -0.224 ± 1.1.

For LKGVKCVHSCWELPR, the amyloid nucleation score is -0.117 ± 1.1.

Take LKGVYSERPNRDAG: the amyloid nucleation score result was “inactive”.

On to LKIRKFLTFKFSSALIIVVC, for which the amyloid nucleation score result is “inactive”.

On to LKKYCMYMSSY, for which the amyloid nucleation score entry was “inactive”.

Regarding LKLSSC, the amyloid nucleation score is 0.739 ± 0.17.

Take LKLYDGSFAFLKCTSFMFNG: the amyloid nucleation score turned out to be 1.19 ± 0.17.

On to LKSCGMRVSKCCFIDICELC, for which the amyloid nucleation score amounted to 0.022 ± 0.75.

Turning to LKSDI, the amyloid nucleation score result was “inactive”.

For the substance LKSSPNPFMNNGFIISAILG, the amyloid nucleation score entry is “inactive”.

On to LKSWDTIWVEDNYSLC, for which the amyloid nucleation score was -0.148 ± 0.81.

Regarding LKVRLALLCRSEQRSPSTEV, the amyloid nucleation score result is “inactive”.

Regarding LLAMPNQRWGTTLLYVQDWF, the amyloid nucleation score entry was “inactive”.

In the case of LLCMTPNIVNSRLMTYYPCH, the amyloid nucleation score entry is “inactive”.

Turning to LLCVDSTKTMIAYD, the amyloid nucleation score entry was “inactive”.

Regarding LLDCFKLYSSHLAEGRTTVT, the amyloid nucleation score entry was “inactive”.

Consider LLDNFY, for which the amyloid nucleation score result is “inactive”.

Turning to LLEIDVGISRCLGVTSETFW, the amyloid nucleation score entry is “inactive”.

For the substance LLFML, the amyloid nucleation score result was “inactive”.

Turning to LLHPYARVDMRVQ, the amyloid nucleation score result is “inactive”.

With LLHTQMALGSLCVGYKIWLG, the amyloid nucleation score result was “inactive”.

Take LLHVVFNTFLYRLEPEYTSK: the amyloid nucleation score entry is “inactive”.

For LLIQNV, the amyloid nucleation score result was “inactive”.

LLISDMGFNIVVLMTVSCFY: the amyloid nucleation score was 0.049 ± 0.29.

For LLIVNWVFRILVYRTTRGLR, the amyloid nucleation score entry was “inactive”.

In the case of LLKGFSCFLNR, the amyloid nucleation score result was “inactive”.

Consider LLKLRIQIKVWTS, for which the amyloid nucleation score result is “inactive”.

Consider LLLDNITLGLWEFIRYRCGW, for which the amyloid nucleation score entry was “inactive”.

As for LLLIKPRKVPLIEVCGWETV, the amyloid nucleation score result was “inactive”.

For the substance LLLTSVL, the amyloid nucleation score result is “inactive”.

In turn, LLMDYYFVGLKLVPFAVPKV had an amyloid nucleation score of 1.22 ± 0.15.

Take LLMKMHDAIAG: the amyloid nucleation score result is “inactive”.

As for LLMSLL, the amyloid nucleation score is 0.09 ± 0.88.

On to LLNDCYIRNKGLPHDERVWG, for which the amyloid nucleation score result was “inactive”.

In the case of LLQSLGGKESNLGK, the amyloid nucleation score result is “inactive”.

In the case of LLRRLYLTLACPFYLMHTKC, the amyloid nucleation score result is “inactive”.

As to LLRSYFVVAC, the amyloid nucleation score result is “inactive”.

On to LLSIYCY, for which the amyloid nucleation score entry is “inactive”.

Take LLSLIT: the amyloid nucleation score entry was “inactive”.

LLSTTSAVAGGMACVSRNMW: the amyloid nucleation score entry is “inactive”.

The substance LLTFALIL yielded an amyloid nucleation score of 0.462 ± 0.19.

With LLTFSH, the amyloid nucleation score result was “inactive”.

As to LLTVSLPMDGST, the amyloid nucleation score result was “inactive”.

Consider LLTWMIG, for which the amyloid nucleation score worked out at 0.714 ± 0.29.

On to LLVFSTGHARRFFSSYESRG, for which the amyloid nucleation score was 1.28 ± 0.09.

For LLVLLVFTALY, the amyloid nucleation score result was “inactive”.

LLVMSQVKYRHMSAAPA: the amyloid nucleation score entry was “inactive”.

As to LLWLKL, the amyloid nucleation score result is “inactive”.

As for LLYARVIRRMCPKVVLFLSD, the amyloid nucleation score result was “inactive”.

For the substance LLYSLWQSHLMLTGCNM, the amyloid nucleation score result was “inactive”.

Consider LMKFFINVKVSGGVTCVRIN, for which the amyloid nucleation score entry was “inactive”.

As to LMLANVNAA, the amyloid nucleation score entry is “inactive”.
